Laboratory results: PMC7187349, “Preparative and Kinetic Analysis of β‐1,4‐ and β‐1,3‐Glucan Phosphorylases Informs Access to Human Milk Oligosaccharide Fragments and Analogues Thereof” (Chembiochem, 2019)

Columns and labels:
Test in all cases: phosphorylase kinetics, synthetic direction
Format in all cases: biochemical, Acetivibrio thermocellus
Details in all cases: acceptor cellobiose (1), matched acceptor; apparent
[1] = substrate: O=P(O)(O)O[C@H]1O[C@H](CO)[C@H](O)[C@H](O)[C@H]1O
Text: (§1) phosphorylase kinetics, synthetic direction on cellodextrin phosphorylase (CDP)

[2] = substrate: O=P(O)(O)O[C@H]1O[C@H](CO)[C@@H](O)[C@H](O)[C@H]1O
Text: as §1

[3] = substrate: N[C@H]1[C@@H](OP(=O)(O)O)O[C@H](CO)[C@@H](O)[C@@H]1O
Text: as §1

B1: cellodextrin phosphorylase (CDP) (Acetivibrio thermocellus) (protein)
chain: MITKVTARNNKITPVELLNQKFGNKINLGNFADAVFTDAAFKNVAGIANLPMKAPVMQVLMENCIVSKYLKQFVPDRSVCFVEEGQKFYIVLEDGQKIEVPEDVNKALKATVSDVKHWAGYLTEDGEHVIDLLKPAPGPHFYVNLLIGNRLGFKRTLQTTPKSVVDRFGRGSFRSHAATQVLATRFDMRQEENGFPANRQFYLYEDGKQIFYSALIDDNIVEATCKHSCNRTVIKYKTACNLEITRTIFLVPHKKGFPLATELQRIEIKNASDKARNLSITYTGMFGTGAVHAIFEDVTYTNVIMQSAALYNDKGEFIGITPDYYPEEFKQDTRFVTMIVRNGDEKSFPQSFCTDYNDFVGTGTLEHPAGGCNLNNKLNRKGPGFFALGAPFTVEPGKTVIIDTFTGLSSSKDNENYSDAVMLRELDNLLRYFEKSESVEETLNEIINFHENYGKYFQFNTGNKLFDSGFNRNLAFQVLYQTFMSRSFGQTQKGYREIGFREIQDLFASMYYFINIGYQDFVKELLFEWTANVYKMGYANHNFYWVGKQPGLYSDDSLWLLQAYYRYIIYTKDTSVLNEEVPVADGNNEKRAVRETLKAIIQYSACISVGDHGLPLLDLADWNDCLKIASNSIDGATKEKLYYEQLKKTNGKYGDRFMSDYSESVMNAFLLKLAIDHLAEIATLDNDTQLAQQMSELSKEVTDRIQKHAWKENFFARVLINRYKDGSYTYLGAKGDKLSADPNIDGVYFLNSFAWSVLSDVATDEQIAIMVDVIKKHLLTPYGLRLVTPADLNKIANDTATGHYFFGDRENGAVFKHASMMAVAALIKAAKKVKDNELAKEMARIAYFMIDLVLPYKNLENPFQVAGNPRICTQYINTDTGENIGPLLSGTATWLNLNLISLAGIEYTRDGISFNPILREEETQLNFTLKAPKCSYKFSITKPVGFARMESSEYELFVDGQKIDNTVIPMYTDEKEHIVTLKFK
notes: wild type, GH94, recombinant from Escherichia coli; homodimer
B1 gave a Km [1] of 9300 ± 1100 µM, a kcat [1] of 0.60 ± 0.02 s⁻¹ and a kcat/Km [1] of 60 M⁻¹ s⁻¹. For the same protein, the Km [2] was 3000 ± 600 µM, the kcat [2] was 16.4 ± 0.7 s⁻¹ and the kcat/Km [2] was 5500 M⁻¹ s⁻¹. For the same protein, the Km [3] was 1600 ± 200 µM, the kcat [3] was 0.08 ± 0.003 s⁻¹ and the kcat/Km [3] was 50 M⁻¹ s⁻¹.
